# Results as given in patent publication US20140087995A1 (published 2014).
# Numbered stars: 1 amine (or outer) side, 2 acyl side, 3 side chain; on linkers, the order of the positions; unused ones are H or OH. Bridge positions count the residues as written; N and C are the ends. Side chains are listed from the residue outwards. Ends that are not written are not given here. * marks the point of attachment. C20 diacid = O=C(O)CCCCCCCCCCCCCCCCCCC(=O)*; γGlu = O=C(O)[C@H](CCC(=O)[*:2])N[*:1]
# T1: human calcitonin receptor (human, UniProt P30988 25-474)
# T1 construct: whole, on cells; Assay used cell membranes, not intact cells; also called hCTR; hCT
# T1 sequence (looked up): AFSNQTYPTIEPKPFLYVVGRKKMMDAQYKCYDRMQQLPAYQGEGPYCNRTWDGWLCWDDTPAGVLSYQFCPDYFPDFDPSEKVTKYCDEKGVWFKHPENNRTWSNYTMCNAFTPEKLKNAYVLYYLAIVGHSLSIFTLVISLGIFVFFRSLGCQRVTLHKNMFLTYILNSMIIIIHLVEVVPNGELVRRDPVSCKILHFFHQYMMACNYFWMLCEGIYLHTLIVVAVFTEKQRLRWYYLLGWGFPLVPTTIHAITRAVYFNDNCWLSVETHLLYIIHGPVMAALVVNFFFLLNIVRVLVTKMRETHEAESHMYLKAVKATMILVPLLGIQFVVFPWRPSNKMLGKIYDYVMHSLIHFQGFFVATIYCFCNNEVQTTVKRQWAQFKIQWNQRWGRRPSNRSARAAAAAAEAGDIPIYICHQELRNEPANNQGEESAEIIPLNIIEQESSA
# T2: human amylin receptor (amylin 3(a) receptor: human calcitonin receptor with RAMP-3) (human, UniProt P30988 25-474; O60896 24-148)
# T2 construct: whole, on cells; Assay used cell membranes of the Amylin 3(a)/CRE-luc BHK cells, not intact cells; also called hAmylin-R; hAmylinR
# T2 sequence (looked up) 1: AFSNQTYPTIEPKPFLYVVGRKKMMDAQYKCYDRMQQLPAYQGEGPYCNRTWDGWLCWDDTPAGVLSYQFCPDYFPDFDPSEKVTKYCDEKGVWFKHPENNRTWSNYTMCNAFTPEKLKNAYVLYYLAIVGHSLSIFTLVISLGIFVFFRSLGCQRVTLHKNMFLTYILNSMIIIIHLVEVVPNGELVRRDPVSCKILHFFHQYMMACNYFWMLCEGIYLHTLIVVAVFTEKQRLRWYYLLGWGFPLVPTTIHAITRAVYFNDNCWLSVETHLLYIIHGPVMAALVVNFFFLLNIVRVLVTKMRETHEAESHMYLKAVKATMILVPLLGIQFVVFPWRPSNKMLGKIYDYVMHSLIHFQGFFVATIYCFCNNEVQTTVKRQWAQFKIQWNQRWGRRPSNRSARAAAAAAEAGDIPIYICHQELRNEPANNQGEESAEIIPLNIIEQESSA
# T2 sequence (looked up) 2: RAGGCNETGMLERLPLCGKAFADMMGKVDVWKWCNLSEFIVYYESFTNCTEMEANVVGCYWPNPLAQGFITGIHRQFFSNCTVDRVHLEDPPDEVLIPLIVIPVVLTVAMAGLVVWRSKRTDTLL
# How the values were obtained:
# [1] = biological target: T1, human calcitonin receptor; assay: SPA competition with 125I-calcitonin on membranes of BHK cells with human calcitonin receptor (Assay VII)
# Method in brief: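 BHK hCTR membranes 35 ng/μL + SPA beads 0.05 mg/well; buffer 50 mM Hepes pH 7.4, 1 mM CaCl2, 5 mM MgCl₂, 0.1% OA, 0.02% Tween20. 120 min, 25° C., shaking. Scintillation count; IC50 by one-site binding competition.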
# [2] = biological target: T1, human calcitonin receptor; assay: ratio IC50 hCTR / IC50 hAmylin-R (reference: human amylin receptor), SPA competition assays
# Method in brief: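 IC₅₀ values were derived by one-site competition analysis of SPA counts. Cell membranes (35 ng/μL) with SPA beads were incubated with test compounds for 120 min at 25° C in Hepes buffer, pH 7.4, containing CaCl2, MgCl₂, OA and Tween20.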
# [3] = biological target: T2, human amylin receptor (amylin 3(a) …); assay: SPA competition with 125I-rat amylin on membranes of BHK cells with human calcitonin receptor and RAMP-3 (Assay V)
# Method in brief: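 Cell membranes were prepared by homogenisation in Na-HEPES/EDTA buffer, pH 7.4, and stored at −80° C. They were then coupled to SPA beads at 35 ng/μL final and exposed to compounds in assay buffer containing CaCl2, MgCl₂, OA and Tween20. After 120 min at 25° C, plates were counted and IC₅₀ derived.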
IC50 [1] [nM],Ratio hCT/hAmylin binding [2],IC50 [3] [nM],Binder
26,145,0.179,"K([γGlu-γGlu-C20 diacid])CNTATCATQRLAHFLRHSSPNFGAIPSSTNVGSNTY-NH2 (disulfide 2-7; N-terminus assumed; SMILES CC[C@H](C)[C@H](NC(=O)[C@H](C)NC(=O)CNC(=O)[C@H](Cc1ccccc1)NC(=O)[C@H](CC(N)=O)NC(=O)[C@@H]1CCCN1C(=O)[C@H](CO)NC(=O)[C@H](CO)NC(=O)[C@H](Cc1c[nH]cn1)NC(=O)[C@H](CCCNC(=N)N)NC(=O)[C@H](CC(C)C)NC(=O)[C@H](Cc1ccccc1)NC(=O)[C@H](Cc1c[nH]cn1)NC(=O)[C@H](C)NC(=O)[C@H](CC(C)C)NC(=O)[C@H](CCCNC(=N)N)NC(=O)[C@H](CCC(N)=O)NC(=O)[C@@H](NC(=O)[C@H](C)NC(=O)[C@@H]1CSSC[C@H](NC(=O)[C@@H](N)CCCCNC(=O)CC[C@H](NC(=O)CC[C@H](NC(=O)CCCCCCCCCCCCCCCCCCC(=O)O)C(=O)O)C(=O)O)C(=O)N[C@@H](CC(N)=O)C(=O)N[C@@H]([C@@H](C)O)C(=O)N[C@@H](C)C(=O)N[C@@H]([C@@H](C)O)C(=O)N1)[C@@H](C)O)C(=O)N1CCC[C@H]1C(=O)N[C@@H](CO)C(=O)N[C@@H](CO)C(=O)N[C@H](C(=O)N[C@@H](CC(N)=O)C(=O)N[C@H](C(=O)NCC(=O)N[C@@H](CO)C(=O)N[C@@H](CC(N)=O)C(=O)N[C@H](C(=O)N[C@@H](Cc1ccc(O)cc1)C(N)=O)[C@@H](C)O)C(C)C)[C@@H](C)O, also called compound 92)"
3.44,45.3,0.076,"K([γGlu-γGlu-C20 diacid])CNTATCATQRLASFLRHSSPNFGAIPSSTNVGPETY-NH2 (disulfide 2-7; N-terminus assumed; SMILES CC[C@H](C)[C@H](NC(=O)[C@H](C)NC(=O)CNC(=O)[C@H](Cc1ccccc1)NC(=O)[C@H](CC(N)=O)NC(=O)[C@@H]1CCCN1C(=O)[C@H](CO)NC(=O)[C@H](CO)NC(=O)[C@H](Cc1c[nH]cn1)NC(=O)[C@H](CCCNC(=N)N)NC(=O)[C@H](CC(C)C)NC(=O)[C@H](Cc1ccccc1)NC(=O)[C@H](CO)NC(=O)[C@H](C)NC(=O)[C@H](CC(C)C)NC(=O)[C@H](CCCNC(=N)N)NC(=O)[C@H](CCC(N)=O)NC(=O)[C@@H](NC(=O)[C@H](C)NC(=O)[C@@H]1CSSC[C@H](NC(=O)[C@@H](N)CCCCNC(=O)CC[C@H](NC(=O)CC[C@H](NC(=O)CCCCCCCCCCCCCCCCCCC(=O)O)C(=O)O)C(=O)O)C(=O)N[C@@H](CC(N)=O)C(=O)N[C@@H]([C@@H](C)O)C(=O)N[C@@H](C)C(=O)N[C@@H]([C@@H](C)O)C(=O)N1)[C@@H](C)O)C(=O)N1CCC[C@H]1C(=O)N[C@@H](CO)C(=O)N[C@@H](CO)C(=O)N[C@H](C(=O)N[C@@H](CC(N)=O)C(=O)N[C@H](C(=O)NCC(=O)N1CCC[C@H]1C(=O)N[C@@H](CCC(=O)O)C(=O)N[C@H](C(=O)N[C@@H](Cc1ccc(O)cc1)C(N)=O)[C@@H](C)O)C(C)C)[C@@H](C)O, also called compound 120)"
66.3,65.3,1.01,"{C20 diacid-γGlu}-GRCNTATCATQRLAHFLRHSSPNFGAIPSSTNVGHNTY-NH2 (disulfide 3-8; SMILES CC[C@H](C)[C@H](NC(=O)[C@H](C)NC(=O)CNC(=O)[C@H](Cc1ccccc1)NC(=O)[C@H](CC(N)=O)NC(=O)[C@@H]1CCCN1C(=O)[C@H](CO)NC(=O)[C@H](CO)NC(=O)[C@H](Cc1c[nH]cn1)NC(=O)[C@H](CCCNC(=N)N)NC(=O)[C@H](CC(C)C)NC(=O)[C@H](Cc1ccccc1)NC(=O)[C@H](Cc1c[nH]cn1)NC(=O)[C@H](C)NC(=O)[C@H](CC(C)C)NC(=O)[C@H](CCCNC(=N)N)NC(=O)[C@H](CCC(N)=O)NC(=O)[C@@H](NC(=O)[C@H](C)NC(=O)[C@@H]1CSSC[C@H](NC(=O)[C@H](CCCNC(=N)N)NC(=O)CNC(=O)CC[C@H](NC(=O)CCCCCCCCCCCCCCCCCCC(=O)O)C(=O)O)C(=O)N[C@@H](CC(N)=O)C(=O)N[C@@H]([C@@H](C)O)C(=O)N[C@@H](C)C(=O)N[C@@H]([C@@H](C)O)C(=O)N1)[C@@H](C)O)C(=O)N1CCC[C@H]1C(=O)N[C@@H](CO)C(=O)N[C@@H](CO)C(=O)N[C@H](C(=O)N[C@@H](CC(N)=O)C(=O)N[C@H](C(=O)NCC(=O)N[C@@H](Cc1c[nH]cn1)C(=O)N[C@@H](CC(N)=O)C(=O)N[C@H](C(=O)N[C@@H](Cc1ccc(O)cc1)C(N)=O)[C@@H](C)O)C(C)C)[C@@H](C)O, also called compound 100)"
3,26.5,0.114,{C20 diacid-γGlu}-GRCNTATCATQRLAAFLRHSSPNFGAIPSSTNVGPNTY-NH2 (disulfide 3-8)
29.2,68.6,0.426,{C20 diacid-γGlu}-GRCNTATCATQRLAAFLRHSSPNFGAIPSSTNVGHNTY-NH2 (disulfide 3-8; SMILES CC[C@H](C)[C@H](NC(=O)[C@H](C)NC(=O)CNC(=O)[C@H](Cc1ccccc1)NC(=O)[C@H](CC(N)=O)NC(=O)[C@@H]1CCCN1C(=O)[C@H](CO)NC(=O)[C@H](CO)NC(=O)[C@H](Cc1c[nH]cn1)NC(=O)[C@H](CCCNC(=N)N)NC(=O)[C@H](CC(C)C)NC(=O)[C@H](Cc1ccccc1)NC(=O)[C@H](C)NC(=O)[C@H](C)NC(=O)[C@H](CC(C)C)NC(=O)[C@H](CCCNC(=N)N)NC(=O)[C@H](CCC(N)=O)NC(=O)[C@@H](NC(=O)[C@H](C)NC(=O)[C@@H]1CSSC[C@H](NC(=O)[C@H](CCCNC(=N)N)NC(=O)CNC(=O)CC[C@H](NC(=O)CCCCCCCCCCCCCCCCCCC(=O)O)C(=O)O)C(=O)N[C@@H](CC(N)=O)C(=O)N[C@@H]([C@@H](C)O)C(=O)N[C@@H](C)C(=O)N[C@@H]([C@@H](C)O)C(=O)N1)[C@@H](C)O)C(=O)N1CCC[C@H]1C(=O)N[C@@H](CO)C(=O)N[C@@H](CO)C(=O)N[C@H](C(=O)N[C@@H](CC(N)=O)C(=O)N[C@H](C(=O)NCC(=O)N[C@@H](Cc1c[nH]cn1)C(=O)N[C@@H](CC(N)=O)C(=O)N[C@H](C(=O)N[C@@H](Cc1ccc(O)cc1)C(N)=O)[C@@H](C)O)C(C)C)[C@@H](C)O)
7.87,36.2,0.217,{C20 diacid-γGlu}-GRCNTATCATQRLAHFLRHSSPNFGAIPSSTNVGPNTY-NH2 (disulfide 3-8; SMILES CC[C@H](C)[C@H](NC(=O)[C@H](C)NC(=O)CNC(=O)[C@H](Cc1ccccc1)NC(=O)[C@H](CC(N)=O)NC(=O)[C@@H]1CCCN1C(=O)[C@H](CO)NC(=O)[C@H](CO)NC(=O)[C@H](Cc1c[nH]cn1)NC(=O)[C@H](CCCNC(=N)N)NC(=O)[C@H](CC(C)C)NC(=O)[C@H](Cc1ccccc1)NC(=O)[C@H](Cc1c[nH]cn1)NC(=O)[C@H](C)NC(=O)[C@H](CC(C)C)NC(=O)[C@H](CCCNC(=N)N)NC(=O)[C@H](CCC(N)=O)NC(=O)[C@@H](NC(=O)[C@H](C)NC(=O)[C@@H]1CSSC[C@H](NC(=O)[C@H](CCCNC(=N)N)NC(=O)CNC(=O)CC[C@H](NC(=O)CCCCCCCCCCCCCCCCCCC(=O)O)C(=O)O)C(=O)N[C@@H](CC(N)=O)C(=O)N[C@@H]([C@@H](C)O)C(=O)N[C@@H](C)C(=O)N[C@@H]([C@@H](C)O)C(=O)N1)[C@@H](C)O)C(=O)N1CCC[C@H]1C(=O)N[C@@H](CO)C(=O)N[C@@H](CO)C(=O)N[C@H](C(=O)N[C@@H](CC(N)=O)C(=O)N[C@H](C(=O)NCC(=O)N1CCC[C@H]1C(=O)N[C@@H](CC(N)=O)C(=O)N[C@H](C(=O)N[C@@H](Cc1ccc(O)cc1)C(N)=O)[C@@H](C)O)C(C)C)[C@@H](C)O)
